By Kd is commonly meant the equilibrium constant for the complex coming apart.

Where no end group is shown, it is not given here. [ ]: non-standard residue; d: D form. pY = N[C@@H](Cc1ccc(OP(=O)(O)O)cc1)C(=O)O

This note sets out measurements from article PMC7619190 (2026).

In this assay the target is human SRC SH2 domain (Gln147-Lys252), wild type (human, UniProt P12931-1 147-252). The assay is described as follows: ITC; SH2 pretreated with 1 mM TCEP. A general note: In ITC the heat of successive injections is recorded.

Regarding EPQ[pY]EEIP [optimized SRC binding phosphopeptide (EPQpYEEIP)], the Kd was 293 nM.
